From patent US20220290165
Where two headings read alike, the source gives them in different places.

What was measured:
[1] = target: soybean trypsin inhibitor (SBTI) (UniProt P01070)
pepstatin A [2] = system: pepstatin A
pepstatin A [3] = target: pepstatin A; remark: listed apart in the source

Chain of UniProt P01070 (P01070 25-205): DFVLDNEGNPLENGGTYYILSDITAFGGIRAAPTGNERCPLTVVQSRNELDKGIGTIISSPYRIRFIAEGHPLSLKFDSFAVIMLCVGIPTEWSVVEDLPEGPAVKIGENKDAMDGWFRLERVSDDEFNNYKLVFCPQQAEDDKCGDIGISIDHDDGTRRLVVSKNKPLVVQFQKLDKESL

Molecule | casein digestion by the SIP purified fractions at pH 5.5 (pepstatin A [3]) | further results
Trichoderma reesei slp2 | – | casein digestion by the SIP purified fractions at pH 5.5 [1]: The SBTI and chymostatin were able to inhibit the SLP2 protease in the purified sample
Trichoderma reesei pep4 | – | casein digestion by the SIP purified fractions at pH 5.5 (pepstatin A [2]): a large portion of the SIP protease activity was inhibited by pepstatin A
Trichoderma reesei pep2 (protein) MQPSFGSFLVTVLSASMAAGSVIPSTNANPGSFEIKRSANKAFTGRNGPLALARTYAKYGVEVPKTLVDAIQLVKSIQLAKRDSATVTATPDHDDIEYLVPVKIGTPPQTLNLDFDTGSSDLWVFSSDVDPTSSQGHDIYTPSKSTSSKKLEGASWNITYGDRSSSSGDVYHDIVSVGNLTVKSQAVESARNVSAQFTQGNNDGLVGLAFSSINTVKPTPQKTWYDNIVGSLDSPVFVADLRHDTPGSYHFGSIPSEASKAFYAPIDNSKGFWQFSTSSNISGQFNAVADTGTTLLLASDDLVKAYYAKVQGARVNVFLGGYVFNCTTQLPDFTFTVGEGNITVPGTLINYSEAGNGQCFGGIQPSGGLPFAIFGDIALKAAYVIFDSGNKQVGWAQKK | a large portion of the SIP protease activity was inhibited by pepstatin A | –
Trichoderma reesei pep3 (protein) MEAILQAQAKFRLDRGLQKITAVRNKNYKRHGPKSYVYLLNRFGFEPTKPGPYFQQHRIHQRGLAHPDFKAAVGGRVTRQKVLAKKVKEDGTVDAGGSKTGEVDAEDQQNDSEYLCEVTIGTPGQKLMLDFDTGSSDLWVFSTELSKHLQENHAIFDPKKSSTFKPLKDQTWQISYGDGSSASGTCGSDTVTLGGLSIKNQTIELASKLAPQFAQGTGDGLLGLAWPQINTVQTDGRPTPANTPVANMIQQDDIPSDAQLFTAAFYSERDENAESFYTFGYIDQDLVSASGQEIAWTDVDNSQGFWMFPSTKTTINGKDISQEGNTAIADTGTTLALVSDEVCEALYKAIPGAKYDDNQQGYVFPINTDASSLPELKVSVGNTQFVIQPEDLAFAPADDSNWYGGVQSRGSNPFDILGDVFLKSVYAIFDQGNQRFGAVPKIQAKQNLQPPQ | a large portion of the SIP protease activity was inhibited by pepstatin A | –
Trichoderma reesei pep5 (protein) MKFHAAALTLACLASSASAGVAQPRADEVESAEQGKTFSLEQIPNERYKGNIPAAYISALAKYSPTIPDKIKHAIEINPDLHRKFSKLINAGNMTGTAVASPPPGADAEYVLPVKIGTPPQTLPLNLDTGSSDLWVISTDTYPPQVQGQTRYNVSASTTAQRLIGESWVIRYGDGSSANGIVYKDRVQIGNTFFNQQAVESAVNISNEISDDSFSSGLLGAASSAANTVRPDRQTTYLENIKSQLARPVFTANLKKGKPGNYNFGYINGSEYIGPIQYAAINPSSPLWEVSVSGYRVGSNDTKYVPRVWNAIADTGTTLLLVPNDIVSAYYAQVKGSTFSNDVGMMLVPCAATLPDFAFGLGNYRGVIPGSYINYGRMNKTYCYGGIQSSEDAPFAVLGDIALKAQFVVFDMGNKVVGFANKNTNV | a large portion of the SIP protease activity was inhibited by pepstatin A | –
Trichoderma reesei gap1 (protein) TVQSNWGGAILEGSGFTAASATVNVPRGGGGSNAAGSAWVGIDGASCQTAILQTGFDWYGDGTYDAWYEWYPEFAADFSGIDIRQGDQIAMSVVATSLTGGSATLENLSTGQKVTQNFNRVTAGSLCETSAEFIIEDFEECNSNGSNCQPVPFASFSPAITFSSATATRSGRSVSLSGAEITEVIVNNQDLTRCSVSGSSTLTCSYV | – | casein digestion by the SIP purified fractions at pH 5.5 (LIP peptide): inhibited the protease activity slightly less compared to SIP inhibitor
